Test results reported in CN116370651A (SHANGHAI YUANZHI BIO TECH CO LTD, dated 2023).

Target: T1, 重组PSMA蛋白 (human, UniProt Q04609 44-750)
T1 construct: also called 人PSMA蛋白; 人PSMA重组蛋白
Experiment: SPR (Biacore); recombinant PSMA immobilised on CM5 chip, J591 as analyte at 0.125-4.0 μg/mL

T1 sequence (Q04609 44-750 limits assumed): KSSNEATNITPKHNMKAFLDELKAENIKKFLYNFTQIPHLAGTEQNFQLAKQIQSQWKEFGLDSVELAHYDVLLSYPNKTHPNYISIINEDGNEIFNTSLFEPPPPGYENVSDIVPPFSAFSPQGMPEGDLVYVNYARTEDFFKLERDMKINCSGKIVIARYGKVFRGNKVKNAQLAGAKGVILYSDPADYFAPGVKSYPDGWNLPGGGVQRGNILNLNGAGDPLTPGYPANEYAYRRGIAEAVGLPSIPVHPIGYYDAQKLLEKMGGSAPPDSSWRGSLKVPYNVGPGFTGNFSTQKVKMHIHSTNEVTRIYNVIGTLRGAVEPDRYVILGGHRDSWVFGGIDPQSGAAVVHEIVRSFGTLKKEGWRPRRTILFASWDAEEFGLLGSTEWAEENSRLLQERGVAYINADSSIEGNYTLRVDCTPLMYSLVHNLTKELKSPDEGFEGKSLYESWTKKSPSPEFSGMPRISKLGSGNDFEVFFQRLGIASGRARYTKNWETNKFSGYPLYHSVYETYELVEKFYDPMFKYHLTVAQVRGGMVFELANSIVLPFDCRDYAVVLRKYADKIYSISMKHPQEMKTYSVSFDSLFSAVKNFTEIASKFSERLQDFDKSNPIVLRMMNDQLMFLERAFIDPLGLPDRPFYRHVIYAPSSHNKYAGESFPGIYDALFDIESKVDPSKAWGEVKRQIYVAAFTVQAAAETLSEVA

B1: 人源化单抗J591 (antibody, V domains shown)
VH: EVQLQQSGPELKKPGTSVRISCKTSGYTFTEYTIHWVKQSHGKSLEWIGNINPNNGGTTYNQKFEDKATLTVDKSSSTAYMELRSLTSEDSAVYYCAAGWNFDYWGQGTTLTVSS
VL: DIVMTQSHKFMSTSVGDRVSIICKASQDVGTAVDWYQQKPGQSPKLLIYWASTRHTGVPDRFTGSGSGTDFTLTITNVQSEDLADYFCQQYNSYPLTFGAGTMLDLK
notes: Expressed from pcDNA3.0 in suspension host cells and purified on Protein A; also called 人源化抗体J591; J591单抗
- Kd: 1.61 nM
